Measurements: patent US20200317768A1 (published 2020)
Changes are numbered by the printed parent chain.

Assays:
Assay in all cases: SPR (BIACORE), antibody captured, FcgR analyte
[1] = target: T1, cynomolgus monkey FcγRIIa2 extracellular domain with C-terminal His-tag (cynomolgus monkey)
T1 construct: also called cyno FcgRIIa2; cynoFcγRIIa2
T1 chain: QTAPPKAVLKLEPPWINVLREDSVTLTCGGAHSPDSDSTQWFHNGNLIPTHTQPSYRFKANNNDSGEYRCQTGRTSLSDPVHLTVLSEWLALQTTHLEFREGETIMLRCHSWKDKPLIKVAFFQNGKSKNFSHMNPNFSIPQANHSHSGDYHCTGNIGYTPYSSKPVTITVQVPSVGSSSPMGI
Procedure: (§1) The kinetic analysis of interactions between these antibodies and FcγR was carried out using BIACORE® T200 or BIACORE® 4000 (GE Healthcare). HBS-EP+ (GE Healthcare) was used as the running buffer, and the measurement temperature was set to 25° C. A chip produced by immobilizing Protein A. Protein A/G or mouse anti-human IgG kappa light chain (BD Biosciences) onto a Series S Sensor Chip CM4 or CM5 (GE Healthcare) by the amine-coupling method was used. […] After the measurement, the antibody captured on the chip was washed off by allowing reaction with 10 mM glycine-HCl, pH1.5 and 25 mM NaOH so that the chip was regenerated and used repeatedly. The sensorgrams obtained as measurement results were analyzed by the 1:1 Langmuir binding model using the BIACORE® Evaluation Software to calculate the binding rate constant ka (L/mol/s) and dissociation rate constant kd (l/s), and the dissociation constant KD (mol/L) was calculated from these values. […] Regarding such interactions, KD values were calculated using the following 1:1 binding model described in BIACORE® T100 Software Handbook BR1006-48 Edition AE.
(§2) The behavior of interacting molecules according to the 1:1 binding model on BIACORE® can be described by Equation 1: Req=C·R max/(KD+C)+RI, wherein, Req is a plot of steady-state binding levels to analyte concentration. C is concentration, RI is bulk refractive index contribution in the sample, and Rmax is analyte binding capacity of the surface. When this equation is rearranged, KD can be expressed as Equation 2: KD=C·Rmax/(Req−RI)−C. KD can be calculated by substituting the values of Rmax, RI, and C into Equation 1 or Equation 2. From the current measurement conditions, RI=0, C=2 μmol/L can be used.

[2] = target: T2, human FcγRIIIaV extracellular domain with C-terminal His-tag (human, UniProt P08637 17-208)
T2 construct: also called human FcgRIIIaV
T2 sequence (P08637 17-208 F176V): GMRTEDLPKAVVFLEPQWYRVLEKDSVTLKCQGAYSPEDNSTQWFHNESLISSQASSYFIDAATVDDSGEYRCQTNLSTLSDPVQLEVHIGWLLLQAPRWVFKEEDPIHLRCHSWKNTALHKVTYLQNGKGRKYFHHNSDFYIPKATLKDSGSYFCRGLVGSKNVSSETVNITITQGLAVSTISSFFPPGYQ
Procedure: as §1, §2

[3] = target: T3, cynomolgus monkey FcγRIIa3 extracellular domain with C-terminal His-tag (cynomolgus monkey)
T3 construct: also called cyno FcgRIIa3; cynoFcγRIIa3
T3 chain: T1 chain with K127I, N130K, H133P, Q142R
Procedure: as §1, §2

[4] = target: T4, human FcγRIIaH extracellular domain with C-terminal His-tag (human, UniProt P12318 34-217)
T4 construct: also called human FcgRIIaH; FcγRIIa (type H)
T4 sequence: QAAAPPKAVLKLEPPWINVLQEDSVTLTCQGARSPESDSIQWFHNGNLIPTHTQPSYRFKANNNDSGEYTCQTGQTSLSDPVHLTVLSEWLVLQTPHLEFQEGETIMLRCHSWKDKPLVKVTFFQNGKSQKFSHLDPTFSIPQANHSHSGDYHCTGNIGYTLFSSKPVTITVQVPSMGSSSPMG
Procedure: as §1, §2

[5] = target: T5, cynomolgus monkey FcγRIIa1 extracellular domain with C-terminal His-tag (cynomolgus monkey)
T5 construct: also called cyno FcgRIIa1; cynoFcγRIIa1
T5 chain: T1 chain with T95P, A121T, K127I, S128A, N130K, N135D, Q142R
Procedure: as §1, §2

[6] = target: T6, human FcγRIIaR extracellular domain with C-terminal His-tag (human, UniProt P12318 34-217)
T6 construct: also called human FcgRIIaR; FcγRIIa (type R)
T6 chain: T4 sequence with H134R
Procedure: as §1, §2

[7] = target: T7, human FcγRIIb extracellular domain with C-terminal His-tag (human, UniProt P31994 43-217)
T7 construct: also called human FcgRIIb
T7 sequence: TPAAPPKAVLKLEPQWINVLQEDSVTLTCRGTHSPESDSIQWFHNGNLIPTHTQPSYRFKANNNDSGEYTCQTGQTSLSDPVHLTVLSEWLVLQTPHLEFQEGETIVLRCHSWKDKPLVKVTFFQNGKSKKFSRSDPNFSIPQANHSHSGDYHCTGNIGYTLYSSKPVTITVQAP
Procedure: as §1, §2

[8] = target: T8, cynomolgus monkey FcγRIIb extracellular domain with C-terminal His-tag (cynomolgus monkey)
T8 construct: also called cyno FcgRIIb; cynoFcγRIIb
T8 chain: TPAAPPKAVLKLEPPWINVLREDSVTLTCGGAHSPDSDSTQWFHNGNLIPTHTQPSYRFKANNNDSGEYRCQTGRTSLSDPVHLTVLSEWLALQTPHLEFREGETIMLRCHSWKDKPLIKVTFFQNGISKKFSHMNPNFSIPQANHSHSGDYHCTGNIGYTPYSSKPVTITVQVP
Procedure: as §1, §2

Kd [1]: 5100 nM | Kd [2]: 810 nM | Kd [3]: 17000 nM | Kd [4]: 690 nM | Kd [5]: 3200 nM | Kd [6]: 1100 nM | Kd [7]: 4600 nM | Kd [8]: 1800 nM
B1: MS_M103205H795-SG1/M103202L889-SK1 (antibody, human IgG1, kappa)
heavy: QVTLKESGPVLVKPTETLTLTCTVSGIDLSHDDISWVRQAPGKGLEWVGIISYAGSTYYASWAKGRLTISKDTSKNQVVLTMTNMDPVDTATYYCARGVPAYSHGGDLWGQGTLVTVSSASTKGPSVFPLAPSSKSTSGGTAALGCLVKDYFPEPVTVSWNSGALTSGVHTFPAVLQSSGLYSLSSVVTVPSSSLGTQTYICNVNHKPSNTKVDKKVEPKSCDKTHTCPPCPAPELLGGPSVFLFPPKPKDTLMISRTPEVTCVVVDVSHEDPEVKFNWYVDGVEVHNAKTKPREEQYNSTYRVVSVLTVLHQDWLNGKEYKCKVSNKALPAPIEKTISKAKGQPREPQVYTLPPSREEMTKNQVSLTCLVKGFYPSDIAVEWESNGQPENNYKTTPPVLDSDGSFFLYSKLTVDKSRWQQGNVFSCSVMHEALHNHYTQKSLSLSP
light: DIVMTQSPATLSLSPGERATLSCTSSQSVYHANWLSWFQQKPGQPPKLLIYWASTLAYGVPSRFSGSGSGTDFTLTISSLQPEDAATYYCAGGYGGGRYAFGQGTKVEIKRTVAAPSVFIFPPSDEQLKSGTASVVCLLNNFYPREAKVQWKVDNALQSGNSQESVTEQDSKDSTYSLSSTLTLSKADYEKHKVYACEVTHQGLSSPVTKSFNRGEC
notes: Parent antibody of the Fc variants; also called MS1032LO06-SG1
